According to patent US11718646B2, “Bovine adrenal medulla peptide 8-22 compounds and methods of use thereof for treating pain” (Tufts Medical Center, priority 2015, dated 2023):
No end group written: not given here.

Key:
wild type MrgprX1 = target: T1, wild type MrgprX1 (Homo sapiens, UniProt Q96LB2); assay: SRE-luciferase reporter gene assay in transfected HEK293 cells, wild type receptor; assay type: cell-based
T1 construct: expressed in transfected cells; host or cells: HEK293
Method: A luciferase reporter-based assay was utilized as an index of receptor-mediated signaling (as in Doyle et al., 2013). Human kidney cells (HEK293), grown in Dulbecco's modified Eagle's medium (DMEM) containing 10% FBS, 100 U/ml penicillin, and 100 μg/ml streptomycin were seeded in 96-well plates and grown to 80% confluence. Using polyethylenimine (PEI, 2.0 μg/mL in serum-free DMEM), cells were transiently transfected with cDNAs encoding (a) wild type or variant MrgprX1 (3 ng/well); (b) an SRE-luciferase PEST construct (SRE5×-Luc-PEST), which includes five SRE repeats, a luciferase reporter gene, and the protein degradation sequence hPEST (Promega, catalog #E1340) (25 ng/well); and (c) a CMV-β-galactosidase construct as a control for variability in transfection efficiency (10 ng/well). In experiments that included transfection of an MTL-encoding construct, the corresponding cDNA was added to the transfection mix, at 4 ng/well or as indicated.
(§1) Twenty-four hours following transfection, cells were stimulated with soluble ligand for 4 hours (if applicable). After addition of SteadyLite reagent (PerkinElmer, Chicago, Ill.), luciferase activity of the lysate was measured using a TopCount NTX plate reader. Subsequently, 2-nitrophenyl β-D-galactopyranoside (ONPG) was added as a colorimetric substrate to enable quantification of β-galactosidase levels. After incubation with ONPG for 30 minutes, absorbance at 420 nm was measured using a SpectraMax microplate reader (Molecular Devices). Luciferase activity was normalized using the β-galactosidase activity data. Three independent experiments were performed, each with three technical replicates. Data were graphed and statistically analyzed using Graphpad Prism software.
GraphPad Prism software version 6.0 (GraphPad Software Inc., La Jolla, Calif.) was used for sigmoidal curve fitting of ligand concentration—response curves, linear regression, and statistical analysis. EC50 and pEC50 values were calculated for each independent experiment as an index of ligand potency. Reported values represent the mean of three independent experiments. Statistical comparisons were made by one-way analysis of variance with Dunnett's multiple comparisons test.
As additional tools for structure-function studies, MTLs incorporating one of two endogenous peptide ligands for MrgprX1, BAMS-22 and γ2-MSH, were generated. The activities of MTL constructs in both orientations (type I, with an extracellular N terminus of the ligand; type II, with an extracellular C terminus) were assessed using a luciferase-based reporter assay as described herein. […] Luciferase activity was quantified and normalized relative to β-galactosidase expression. […]

MrgprX1 R131S variant = target: T2, MrgprX1 R131S variant (Homo sapiens, UniProt Q96LB2, R131S); assay: SRE-luciferase reporter gene assay in transfected HEK293 cells, R131S variant; assay type: cell-based
T2 construct: expressed in transfected cells; host or cells: HEK293
T2 sequence (Q96LB2 whole entry R131S): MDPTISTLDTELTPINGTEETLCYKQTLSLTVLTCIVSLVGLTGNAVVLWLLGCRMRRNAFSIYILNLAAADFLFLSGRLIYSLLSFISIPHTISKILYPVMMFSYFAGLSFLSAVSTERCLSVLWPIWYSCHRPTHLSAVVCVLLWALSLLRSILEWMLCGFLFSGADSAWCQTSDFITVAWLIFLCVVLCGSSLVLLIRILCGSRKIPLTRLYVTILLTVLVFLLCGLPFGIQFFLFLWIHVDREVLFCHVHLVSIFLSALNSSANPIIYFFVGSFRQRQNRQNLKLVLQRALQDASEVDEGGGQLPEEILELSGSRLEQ
Method: (§2) A luciferase reporter-based assay was utilized as an index of receptor-mediated signaling (as in Doyle et al., 2013). Human kidney cells (HEK293), grown in Dulbecco's modified Eagle's medium (DMEM) containing 10% FBS, 100 U/ml penicillin, and 100 μg/ml streptomycin were seeded in 96-well plates and grown to 80% confluence. […]
as §1, with “Luciferase activity was normalized using the β-galactosidase activity data. Three independent experiments were performed, each with three technical replicates.” left out
(§3) GraphPad Prism software version 6.0 (GraphPad Software Inc., La Jolla, Calif.) was used for sigmoidal curve fitting of ligand concentration—response curves, linear regression, and statistical analysis. EC50 and pEC50 values were calculated for each independent experiment as an index of ligand potency. […]
Signaling of MrgprX1 following stimulation with the endogenous peptide ligand BAM8-22 was measured using a luciferase reporter assay as described herein. […]

[1] = system: spinal nerve ligation neuropathic pain; conditions: intrathecal; rats; cited from earlier work
MrgprX1 R55L variant = target: T3, MrgprX1 R55L variant (Homo sapiens, UniProt Q96LB2, R55L); assay: SRE-luciferase reporter gene assay in transfected HEK293 cells, R55L variant; assay type: cell-based; conditions: significant only with tethered γ2-MSH
T3 construct: expressed in transfected cells; host or cells: HEK293
T3 sequence (Q96LB2 whole entry R55L): as the sequence (Q96LB2 whole entry R131S) above, with R55L, S131R counted along it
Method: as §2
as §1, with “Luciferase activity was normalized using the β-galactosidase activity data. Three independent experiments were performed, each with three technical replicates.” left out
as §3
(§4) The activity of tethered and lipidated BAMS-22 at each of the seven MrgprX1 variants was assessed (FIGS. 4A-4B). […]

MrgprX1 H133R variant = target: T4, MrgprX1 H133R variant (Homo sapiens, UniProt Q96LB2, H133R); assay: SRE-luciferase reporter gene assay in transfected HEK293 cells, H133R variant; assay type: cell-based
T4 construct: expressed in transfected cells; host or cells: HEK293
T4 sequence (Q96LB2 whole entry H133R): as the sequence (Q96LB2 whole entry R131S) above, with S131R, H133R counted along it
Method: as §2
as §1, with “Luciferase activity was normalized using the β-galactosidase activity data. Three independent experiments were performed, each with three technical replicates.” left out
as §3, §4

MrgprX1 F273L variant = target: T5, MrgprX1 F273L variant (Homo sapiens, UniProt Q96LB2, F273L); assay: SRE-luciferase reporter gene assay in transfected HEK293 cells, F273L variant; assay type: cell-based; conditions: significant only with tethered γ2-MSH
T5 construct: expressed in transfected cells; host or cells: HEK293
T5 sequence (Q96LB2 whole entry F273L): as the sequence (Q96LB2 whole entry R131S) above, with S131R, F273L counted along it
Method: as §2
as §1, with “Luciferase activity was normalized using the β-galactosidase activity data. Three independent experiments were performed, each with three technical replicates.” left out
as §3, §4

T1 sequence (Q96LB2 whole entry): as the sequence (Q96LB2 whole entry R131S) above, with S131R counted along it

| tethered ligand induced receptor activity of substituted BAM8-22 MTL (wild type MrgprX1; MTL construct in HEK293 cells) | receptor stimulation at the highest tested concentration (wild type MrgprX1; 10 μM, accurate EC50 values could not be calculated) | signaling at saturating concentration, of maximum lipidated BAM8-22 signaling (wild type MrgprX1; WT receptor, relative to lipidated BAM8-22 at 10^−7 M, mean±SEM, data not shown) [%] | MTL activation of the receptor (wild type MrgprX1; co-expressed with MrgprX1 in HEK293, increasing amounts of MTL cDNA, FIG. 3A, 3B) | ligand-mediated signaling compared to wild type receptor (MrgprX1 R55L variant) | ligand-mediated signaling compared to wild type receptor (MrgprX1 H133R variant) | ligand-mediated signaling compared to wild type receptor (MrgprX1 F273L variant) | Substance | ligand-mediated signaling compared to wild type receptor (MrgprX1 R131S variant) | time after administration at which the effect returns to baseline [1] [min] |
| --- | --- | --- | --- | --- | --- | --- | --- | --- | --- |
| full activity |  |  |  |  |  |  | M15A-Y17W: double substituted BAM8-22 MTL analog, M15A and Y17W (VGRPEWWADWQKRYG; left off: small tags and cut ends; large carriers) |  |  |
|  | does not fully stimulate the receptors |  |  |  |  |  | bovine adrenal medulla peptide 8-22 (VGRPEWWMDYQKRYG) [BAM8-22, reference compound] | lower levels of BAMS-22 mediated activity | 90 |
|  |  | 38.4±5.4 | Active | moderate decrease in signaling | not observed | moderate decrease in signaling | tethered BAM8-22: cDNA-encoded type I membrane tethered ligand: BAM8-22 fused to a transmembrane domain via a flexible linker, free extracellular N terminus (VGRPEWWMDYQKRYG; also: fused at C-terminus via flexible linker to a transmembrane domain (type I tethered ligand)) | negligible signaling levels |  |
